Measured values published in patent US20120263734A1.

Target: GPCMV gB (glycoprotein B of Guinea Pig CMV strain V545/82) (guinea pig CMV (GPCMV))
Assay: cell-based or functional assay

ITC88 control antibody
neutralization of GPCMV V545/82 entry into JH4 cells (highest concentration tested, no effect): > 300 µg/mL
